Experimental data published in the supplement of paper PMC11316812.
± gives the standard deviation of the averaged measurements.

Columns and labels:
hTERT-HMEC = test: percentage of EdU-negative (G0-arrested) nuclei per well, 72 h; higher = more G0 arrest; conditions: reference: sequence is the full UniProt precursor, the tested protein was the secreted form or ectodomain
MCF7 = test: as above; conditions: reference: sequence is the full UniProt precursor, the tested protein was the secreted form or ectodomain
[1] = protein concentration 0.00525 µM
[2] = protein concentration 0.0525 µM
[3] = protein concentration 0.00725 µM
[4] = protein concentration 0.0725 µM
[5] = protein concentration 0.03125 µM
[6] = protein concentration 0.3125 µM
[7] = protein concentration 0.013725 µM
[8] = protein concentration 0.13725 µM
[9] = protein concentration 0.0225 µM
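Also: secreted proteins added to cultured cells, EdU pulse at the end, nuclei found by Hoechst imaging, EdU status from nuclear versus surrounding ring intensity ratio, PBS as neutral control.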

Substance: MEDLCVANTLFALNLFKHLAKASPTQNLFLSPWSISSTMAMVYMGSRGSTEDQMAKVLQFNEVGANAVTPMTPENFTSCGFMQQIQKGSYPDAILQAQAADKIHSSFRSLSSAINASTGNYLLESVNKLFGEKSASFREEYIRLCQKYYSSEPQAVDFLECAEEARKKINSWVKTQTKGKIPNLLPEGSVDGDTRMVLVNAVYFKGKWKTPFEKKLNGLYPFRVNSAQRTPVQMMYLREKLNIGYIEDLKAQILELPYAGDVSMFLLLPDEIADVSTGLELLESEITYDKLNKWTSKDKMAEDEVEVYIPQFKLEEHYELRSILRSMGMEDAFNKGRANFSGMSERNDLFLSEVFHQAMVDVNEEGTEAAAGTGGVMTGRTGHGGPQFVADHPFLFLIMHKITNCILFFGRFSSP
- percentage of EdU-negative (hTERT-HMEC; [1]): 5.431 ± 0.036%
- percentage of EdU-negative (hTERT-HMEC; [2]): 5.26 ± 1.3%
- percentage of EdU-negative (MCF7; [1]): 24.7 ± 0.25%
- percentage of EdU-negative (MCF7; [2]): 27.383 ± 0.014%

Substance: Q9ULL4
- percentage of EdU-negative (hTERT-HMEC; [3]): 5.08 ± 0.93%
- percentage of EdU-negative (hTERT-HMEC; [4]): 5.74 ± 0.25%
- percentage of EdU-negative (MCF7; [3]): 23.6 ± 1.5%
- percentage of EdU-negative (MCF7; [4]): 27.8 ± 0.59%

Substance: MKFTIVFAGLLGVFLAPALANYNINVNDDNNNAGSGQQSVSVNNEHNVANVDNNNGWDSWNSIWDYGNGFAATRLFQKKTCIVHKMNKEVMPSIQSLDALVKEKKLQGKGPGGPPPKGLMYSVNPNKVDDLSKFGKNIANMCRGIPTYMAEEMQEASLFFYSGTCYTTSVLWIVDISFCGDTVEN [Q9NS71]
- percentage of EdU-negative (hTERT-HMEC; [5]): 4.8 ± 0.55%
- percentage of EdU-negative (hTERT-HMEC; [6]): 5.56 ± 0.6%
- percentage of EdU-negative (MCF7; [5]): 23 ± 2.2%
- percentage of EdU-negative (MCF7; [6]): 25.4 ± 3.5%

Substance: MYSAPSACTCLCLHFLLLCFQVQVLVAEENVDFRIHVENQTRARDDVSRKQLRLYQLYSRTSGKHIQVLGRRISARGEDGDKYAQLLVETDTFGSQVRIKGKETEFYLCMNRKGKLVGKPDGTSKECVFIEKVLENNYTALMSAKYSGWYVGFTKKGRPRKGPKTRENQQDVHFMKRYPKGQPELQKPFKYTTVTKRSRRIRPTHPA
- percentage of EdU-negative (hTERT-HMEC; [7]): 4.7 ± 1.1%
- percentage of EdU-negative (hTERT-HMEC; [8]): 5.41 ± 0.5%
- percentage of EdU-negative (MCF7; [7]): 24.26 ± 0.046%
- percentage of EdU-negative (MCF7; [8]): 22.8 ± 0.92%

Substance: MTDRQTDTAPSPSYHLLPGRRRTVDAAASRGQGPEPAPGGGVEGVGARGVALKLFVQLLGCSRFGGAVVRAGEAEPSGAARSASSGREEPQPEEGEEEEEKEEERGPQWRLGARKPGSWTGEAAVCADSAPAARAPQALARASGRGGRVARRGAEESGPPHSPSRRGSASRAGPGRASETMNFLLSWVHWSLALLLYLHHAKWSQAAPMAEGGGQNHHEVVKFMDVYQRSYCHPIETLVDIFQEYPDEIEYIFKPSCVPLMRCGGCCNDEGLECVPTEESNITMQIMRIKPHQGQHIGEMSFLQHNKCECRPKKDRARQEKKSVRGKGKGQKRKRKKSRYKSWSVPCGPCSERRKHLFVQDPQTCKCSCKNTDSRCKARQLELNERTCRCDKPRR
- percentage of EdU-negative (hTERT-HMEC; [5]): 5.12 ± 1.2%
- percentage of EdU-negative (hTERT-HMEC; [6]): 5.48 ± 0.89%
- percentage of EdU-negative (MCF7; [5]): 27 ± 1.3%
- percentage of EdU-negative (MCF7; [6]): 25.1 ± 0.32%

Substance: MRPLAGGLLKVVFVVFASLCAWYSGYLLAELIPDAPLSSAAYSIRSIGERPVLKAPVPKRQKCDHWTPCPSDTYAYRLLSGGGRSKYAKICFEDNLLMGEQLGNVARGINIAIVNYVTGNVTATRCFDMYEGDNSGPMTKFIQSAAPKSLLFMVTYDDGSTRLNNDAKNAIEALGSKEIRNMKFRSSWVFIAAKGLELPSEIQREKINHSDAKNNRYSGWPAEIQIEGCIPKERS
- percentage of EdU-negative (hTERT-HMEC; [9]): 4.35 ± 0.59%
- percentage of EdU-negative (hTERT-HMEC; protein concentration 0.225 µM): 6.31 ± 1.2%
- percentage of EdU-negative (MCF7; [9]): 27.2 ± 0.94%
- percentage of EdU-negative (MCF7; protein concentration 0.225 µM): 24.7 ± 0.92%
